Paper PMC12724367 (Applied and Environmental Microbiology, 2025)
Values belong to the molecule of their own block, whether it stands above or below them.

Key:
[1] = molecular target: T1, PdG-D-LDH (Nocardiopsis eucommiae, UniProt A0A975LBX7); assay: product inhibition, DCIP reduction assay; type: biochemical
T1 construct: gene KGD82_12890; N-terminal His6 tag (pET15b), codon-optimised synthetic gene, E. coli Tuner; no tag cleavage told; homodimer (97 kDa) fraction

[2] = molecular target: T1, PdG-D-LDH; assay: X-ray crystal structure; HPLC of released flavin; type: binding; settings: non-covalent, active site; co-purified
[3] = molecular target: T1, PdG-D-LDH; assay: X-ray crystal structure of complex (soak); type: binding; settings: 20 mM D-lactate soaked 10 min; active site, coordinated to Fe(II)
[4] = substrate: C[C@@H](O)C(=O)O; assay: purified protein; settings: 0.075 mM DCIP as electron acceptor, 100 mM glycine-NaOH, pH 9, 25 °C
[5] = substrate: C[C@H](O)C(=O)O; assay: purified protein; settings: 0.075 mM DCIP as electron acceptor, 100 mM glycine-NaOH, pH 9, 25 °C
[6] = substrate: O=C1C=CC(=O)C=C1; assay: purified protein; type: biochemical, Nocardiopsis eucommiae; settings: electron acceptor, 20 mM sodium D-lactate, 100 mM phosphate, pH 7.5, 25 °C
[7] = substrate: O=C1C=C(S(=O)(=O)O)c2ccccc2C1=O; assay: apparent steady-state kinetics, absorbance; type: biochemical, Nocardiopsis eucommiae; settings: electron acceptor, 20 mM sodium D-lactate, 100 mM phosphate, pH 7.5, 25 °C
Source text: apparent steady-state kinetics, absorbance on PdG-D-LDH

- IC50 [1]: 53 mM
Molecule: CC(=O)C(=O)O [pyruvate]

Molecule: Cc1cc2nc3c(=O)[nH]c(=O)nc-3n(C[C@H](O)[C@H](O)[C@H](O)COP(=O)(O)OP(=O)(O)OC[C@H]3O[C@@H](n4cnc5c(N)ncnc54)[C@H](O)[C@@H]3O)c2cc1C [FAD]
- X-ray crystal structure; HPLC of released flavin [2]: The structure contains a non-covalently bound FAD at the active site.

Molecule: C[C@@H](O)C(=O)O [D-lactate]
- X-ray crystal structure of complex (soak) [3]: a metal ion and the substrate D-lactate (in PdG-D-LDH-lactate complex) are clearly defined

B1: PdG-D-LDH (Nocardiopsis eucommiae) (protein)
chain: MPGVVEELVAAIGTEQVVTDPAVMEGYSHDEAEWAPYGAPAAVVRPRDTADVAAVVRVCARSGVAVVGRGAGTGLSGAANSGRGWVVVSFERMNRVLEVDTVQQTATVQPGVVNDDLRARVAQDGLWYPPDPASAPWSTIGGNVATNAGGLCCVKYGVTRDYVLGMEAVVGTGEVVRLGRTTAKGVTGYDLAGLMVGSEGTLGLVTEVTLRLVPLRRGVEHTVVGYFDSLTDAGRAVAAVSAAGIVPSALELIDRFCLQAVDEWKNMGLSAEGEVLLLARSDLPGASGQEEADRILECFEQEKAVYAVRSTDKEEAEALFQARRLAYPALERLGPLLTEDVCVPKARVPHMLEAIEAAGERFDTRIGNIAHAGDGNLHPLFIVPAGDEEAKRRAKQAFEVIVDEALAVGGTVTGEHGVGLLKMRGAADELGPHVLAMHRAVKGALDPEGIFNPGKVFALEEA
notes: N-terminal His6 tag (pET15b), codon-optimised synthetic gene, E. coli Tuner; no tag cleavage told; homodimer (97 kDa) fraction
- Km [4]: 1000 ± 100 µM
- kcat [4]: 8.2 s⁻¹
- kcat/Km [4]: 8000 M⁻¹ s⁻¹
- Km [5]: 59000 ± 5000 µM
- kcat [5]: 4.7 s⁻¹
- kcat/Km [5]: 79 M⁻¹ s⁻¹
- Km [6]: 20 ± 10 µM
- kcat [6]: 1.8 ± 0.1 s⁻¹
- kcat/Km [6]: 80000 ± 30000 M⁻¹ s⁻¹
- Km [7]: 80 ± 10 µM
- kcat [7]: 0.95 ± 0.04 s⁻¹
- kcat/Km [7]: 12000 ± 2000 M⁻¹ s⁻¹
